Data on 1 substance can be found in patent US10335489B2, “Injectable solution at pH 7 comprising at least one basal insulin the pi of which is between 5.8 and 8.5 and a substituted co-polyamino acid” (ADOCIA, priority 2012, dated 2019).

This series can be described thus: Precipitation of insulin glargine on addition to PBS/BSA mixture simulating the subcutaneous medium, centrifugation, RP-HPLC assay of supernatant. It counts as physicochemical. As to conditions: co-polyamino acid 1/insulin glargine/prandial insulin 75/25 composition added to 2 ml PBS/BSA. As to the method:
The PBS/BSA mixture simulates the composition of the subcutaneous medium.
Centrifugation at 4000 rpm is carried out in order to separate the precipitate from the supernatant.
(§1) The PBS/BSA mixture simulates the composition of the subcutaneous medium. A precipitate appears.
as §1
This composition is added to 2 ml of PBS containing 20 mg/ml of BSA (bovine serum albumin). The PBS/BSA mixture simulates the composition of the subcutaneous medium. A precipitate appears. Centrifugation at 4000 rpm is carried out in order to separate the precipitate from the supernatant. […]
The PBS/BSA mixture simulates the composition of the subcutaneous medium. A precipitate appears. Centrifugation at 4000 rpm is carried out in order to separate the precipitate from the supernatant.
as §1

On to “Human insulin (ActRapid ®): commercial solution of human insulin at 100 IU/ml”, for which the “Precipitation of insulin glargine” value is given as “yes”.
